B1: CD20-4GL-SIRPα (bispecific antibody)
heavy: not shown
light: QIVLSQSPAILSASPGEKVTMTCRASSSVSYIHWFQQKPGSSPKPWIYATSNLASGVPVRFSGSGSGTSYSLTISRVEAEDAATYYCQQWTSNPPTFGGGTKLEIKRTVAAPSVFIFPPSDEQLKSGTASVVCLLNNFYPREAKVQWKVDNALQSGNSQESVTEQDSKDSTYSLSSTLTLSKADYEKHKVYACEVTHQGLSSPVTKSFNRGEC
B2: CD20-2GL-SIRPα (bispecific antibody)
heavy: not shown
light: B1 light
B3: SIRPα-CD20 (bispecific antibody)
heavy: not shown
light: B1 light

Molecular target: CD47-His (UniProt Q08722 19-139)
Test: SPR (Biacore)

Sequence of CD47-His (Q08722 19-139): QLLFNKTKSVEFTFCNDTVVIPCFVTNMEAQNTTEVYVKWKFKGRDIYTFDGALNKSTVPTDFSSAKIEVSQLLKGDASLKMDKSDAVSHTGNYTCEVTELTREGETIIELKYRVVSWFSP

Row | Binder | Kd [nM]
1 | B1 | 15.9
2 | B2 | 21.4
3 | B3 | 6.39
